Reference: patent publication US20090099029A1, “Methods and substrates for conducting assays” (Invitrogen Corporation, priority 2005, published 2009)

B1: PDGFRA, T674I (protein)
chain: KQKPRYEIRWRVIESISPDGHEYIYVDPMQLPYDSRWEFPRDGLVLGRVLGSGAFGKVVEGTAYGLSRSQPVMKVAVKMLKPTARSSEKQALMSELKIMTHLGPHLNIVNLLGACTKSGPIYIIIEYCFYGDLVNYLHKNRDSFLSHHPEKPKKELDIFGLNPADESTRSYVILSFENNGDYMDMKQADTTQYVPMLERKEVSKYSDIQRSLYDRPASYKKKSMLDSEVKNLLSDDNSEGLTLLDLLSFTYQVARGMEFLASKNCVHRDLAARNVLLAQGKIVKICDFGLARDIMHDSNYVSKGSTFLPVKWMAPESIFDNLYTTLSDVWSYGILLWEIFSLGGTPYPGMMVDSTFYNKIKSGYRMAKPDHATSEVYEIMVKCWNSEPEKRPSFYHLSEIVENLLPGQYKKSYEKIHLDFLKSDHPAVARMRVDSDNAYIGVTYKNEEDKLKDWEGGLDEQRLSADSGYIIPLPDIDPVPEEEDLGKRNRHSSQTSEESAIETGSSSSTFIKREDETIEDIDMMDDIGIDSSDLVEDSFL
modifications: left off: a dimerising Fc or GST
B2: PDGFRB (protein)
chain: MLWQKKPRYEIRWKVIESVSSDGHEYIYVDPMQLPYDSTWELPRDQLVLGRTLGSGAFGQVVEATAHGLSHSQATMKVAVKMLKSTARSSEKQALMSELKIMSHLGPHLNVVNLLGACTKGGPIYIITEYCRYGDLVDYLHRNKHTFLQHHSDKRRPPSAELYSNALPVGLPLPSHVSLTGESDGGYMDMSKDESVDYVPMLDMKGDVKYADIESSNYMAPYDNYVPSAPERTCRATLINESPVLSYMDLVGFSYQVANGMEFLASKNCVHRDLAARNVLICEGKLVKICDFGLARDIMRDSNYISKGSTFLPLKWMAPESIFNSLYTTLSDVWSFGILLWEIFTLGGTPYPELPMNEQFYNAIKRGYRMAQPAHASDEIYEIMQKCWEEKFEIRPPFSQLVLLLERLLGEGYKKKYQQVDEEFLRSDHPAILRSQARLPGFHGLRSPLDTSSVLYTAVQPNEGDNDYIIPLPDPKPEVADEGPLEGSPSLASSTLNEVNTSSTISCDSPLEPQDEPEPEPQLELQVEPEPELEQLPDSGCPAPRAEAEDSFL
modifications: left off: small tags and cut ends
B3: RET (protein)
chain: HCYHKFAHKPPISSAEMTFRRPAQAFPVSYSSSGARRPSLDSMENQVSVDAFKILEDPKWEFPRKNLVLGKTLGEGEFGKVVKATAFHLKGRAGYTTVAVKMLKENASPSELRDLLSEFNVLKQVNHPHVIKLYGACSQDGPLLLIVEYAKYGSLRGFLRESRKVGPGYLGSGGSRNSSSLDHPDERALTMGDLISFAWQISQGMQYLAEMKLVHRDLAARNILVAEGRKMKISDFGLSRDVYEEDSYVKRSQGRIPVKWMAIESLFDHIYTTQSDVWSFGVLLWEIVTLGGNPYPGIPPERLFNLLKTGHRMERPDNCSEEMYRLMLQCWKQEPDKRPVFADISKDLEKMMVKRRDYLDLAASTPSDSLIYDDGLSEEETPLVDCNNAPLPRALPSTWIENKLYGMSDPNWPGESPVPLTRADGTNTGFPRYPNDSVYANWMLSPSAAKLMDTFDS
modifications: left off: a dimerising Fc or GST
B4: ROS1 (protein)
chain: HRRLKNQKSAKEGVTVLINEDKELAELRGLAAGVGLANACYAIHTLPTQEEIENLPAFPREKLTLRLLLGSGAFGEVYEGTAVDILGVGSGEIKVAVKTLKKGSTDQEKIEFLKEAHLMSKFNHPNILKQLGVCLLNEPQYIILELMEGGDLLTYLRKARMATFYGPLLTLVDLVDLCVDISKGCVYLERMHFIHRDLAARNCLVSVKDYTSPRIVKIGDFGLARDIYKNDYYRKRGEGLLPVRWMAPESLMDGIFTTQSDVWSFGILIWEILTLGHQPYPAHSNLDVLNYVQTGGRLEPPRNCPDDLWNLMTQCWAQEPDQRPTFHRIQDQLQLFRNFFLNSIYKSRDEANNSGVINESFEGEDGDVICLNSDDIMPVALMETKNREGLNYMVLATECGQGEEKSEGPLGSQESESCGLRKEEKEPHADKDFCQEKQVAYCPSGKPEGLNYACLTHSGYGDGSD
modifications: left off: a dimerising Fc or GST
B5: TYRO3 (protein)
chain: LRKRRKETRFGQAFDSVMARGEPAVHFRAARSFNRERPERIEATLDSLGISDELKEKLEDVLIPEQQFTLGRMLGKGEFGSVREAQLKQEDGSFVKVAVKMLKADIIASSDIEEFLREAACMKEFDHPHVAKLVGVSLRSRAKGRLPIPMVILPFMKHGDLHAFLLASRIGENPFNLPLQTLIRFMVDIACGMEYLSSRNFIHRDLAARNCMLAEDMTVCVADFGLSRKIYSGDYYRQGCASKLPVKWLALESLADNLYTVQSDVWAFGVTMWEIMTRGQTPYAGIENAEIYNYLIGGNRLKQPPECMEDVYDLMYQCWSADPKQRPSFTCLRMELENILGQLSVLSASQDPLYINIERAEEPTAGGSLELPGRDQPYSGAGDGSGMGAVGGTPSDCRYILTPGGLAEQPGQAEHQPESPLNETQRLLLLQQGLLPHSSC
modifications: left off: a dimerising Fc or GST
B6: ABL2(ARG) (protein)
chain: MGQQVGRVGEAPGLQQPQPRGIRGSSAARPSGRRRDPAGRTTETGFNIFTQHDHFASCVEDGFEGDKTGGSSPEALHRPYGCDVEPQALNEAIRWSSKENLLGATESDPNLFVALYDFVASGDNTLSITKGEKLRVLGYNQNGEWSEVRSKNGQGWVPSNYITPVNSLEKHSWYHGPVSRSAAEYLLSSLINGSFLVRESESSPGQLSISLRYEGRVYHYRINTTADGKVYVTAESRFSTLAELVHHHSTVADGLVTTLHYPAPKCNKPTVYGVSPIHDKWEMERTDITMKHKLGGGQYGEVYVGVWKKYSLTVAVKTLKEDTMEVEEFLKEAAVMKEIKHPNLVQLLGVCTLEPPFYIVTEYMPYGNLLDYLRECNREEVTAVVLLYMATQISSAMEYLEKKNFIHRDLAARNCLVGENHVVKVADFGLSRLMTGDTYTAHAGAKFPIKWTAPESLAYNTFSIKSDVWAFGVLLWEIATYGMSPYPGIDLSQVYDLLEKGYRMEQPEGCPPKVYELMRACWKWSPADRPSFAETHQAFETMFHDSSISEEVAEELGRAASSSSVVPYLPRLPILPSKTRTLKKQVENKENIEGAQDATENSASSLAPGFIRGAQASSGSPALPRKQRDKSPSSLLEDAKETCFTRDRKGGFFSSFMKKRNAPTPPKRSSSFREMENQPHKKYELTGNFSSVASLQHADGFSFTPAQQEANLVPPKCYGGSFAQRNLCNDDGGGGGGSGTAGGGWSGITGFFTPRLIKKTLGLRAGKPTASDDTSKPFPRSNSTSSMSSGLPEQDRMAMTLPRNCQRSKLQLERTVSTSSQPEENVDRANDMLPKKSEESAAPSRERPKAKLLPRGATALPLRTPSGDLAITEKDPPGVGVAGVAAAPKGKEKNGGARLGMAGVPEDGEQPGWPSPAKAAPVLPTTHNHKVPVLISPTLKHTPADVQLIGTDSQGNKFKLLSEHQVTSSGDKDRPRRVKPKCAPPPPPVMRLLQHPSICSDPTEEPTALTAGQSTSETQEGGKKAALGAVPISGKAGRPVMPPPQVPLPTSSISPAKMANGTAGTKVALRKTKQAAEKISADKISKEALLECADLLSSALTEPVPNSQLVDTGHQLLDYCSGYVDCIPQTRNKFAFREAVSKLELSLQELQVSSAAAGVPGTNPVLNNLLSCVQEISDVVQR
modifications: left off: small tags and cut ends
B7: BMX (protein)
chain: MDTKSILEELLLKRSQQKKKMSPNNYKERLFVLTKTNLSYYEYDKMKRGSRKGSIEIKKIRCVEKVNLEEQTPVERQYPFQIVYKDGLLYVYASNEESRSQWLKALQKEIRGNPHLLVKYHSGFFVDGKFLCCQQSCKAAPGCTLWEAYANLHTAVNEEKHRVPTFPDRVLKIPRAVPVLKMDAPSSSTTLAQYDNESKKNYGSQPPSSSTSLAQYDSNSKKIYGSQPNFNMQYIPREDFPDWWQVRKLKSSSSSEDVASSNQKERNVNHTTSKISWEFPESSSSEEEENLDDYDWFAGNISRSQSEQLLRQKGKEGAFMVRNSSQVGMYTVSLFSKAVNDKKGTVKHYHVHTNAENKLYLAENYCFDSIPKLIHYHQHNSAGMITRLRHPVSTKANKVPDSVSLGNGIWELKREEITLLKELGSGQFGVVQLGKWKGQYDVAVKMIKEGSMSEDEFFQEAQTMMKLSHPKLVKFYGVCSKEYPIYIVTEYISNGCLLNYLRSHGKGLEPSQLLEMCYDVCEGMAFLESHQFIHRDLAARNCLVDRDLCVKVSDFGMTRYVLDDQYVSSVGTKFPVKWSAPEVFHYFKYSSKSDVWAFGILMWEVFSLGKQPYDLYDNSQVVLKVSQGHRLYRPHLASDTIYQIMYSCWHELPEKRPTFQQLLSSIEPLREKDKH
modifications: left off: small tags and cut ends
B8: BTK (protein)
chain: MAAVILESIFLKRSQQKKKTSPLNFKKRLFLLTVHKLSYYEYDFERGRRGSKKGSIDVEKITCVETVVPEKNPPPERQIPRRGEESSEMEQISIIERFPYPFQVVYDEGPLYVFSPTEELRKRWIHQLKNVIRYNSDLVQKYHPCFWIDGQYLCCSQTAKNAMGCQILENRNGSLKPGSSHRKTKKPLPPTPEEDQILKKPLPPEPAAAPVSTSELKKVVALYDYMPMNANDLQLRKGDEYFILEESNLPWWRARDKNGQEGYIPSNYVTEAEDSIEMYEWYSKHMTRSQAEQLLKQEGKEGGFIVRDSSKAGKYTVSVFAKSTGDPQGVIRHYVVCSTPQSQYYLAEKHLFSTIPELINYHQHNSAGLISRLKYPVSQQNKNAPSTAGLGYGSWEIDPKDLTFLKELGTGQFGVVKYGKWRGQYDVAIKMIKEGSMSEDEFIEEAKVMMNLSHEKLVQLYGVCTKQRPIFIITEYMANGCLLNYLREMRHRFQTQQLLEMCKDVCEAMEYLESKQFLHRDLAARNCLVNDQGVVKVSDFGLSRYVLDDEYTSSVGSKFPVRWSPPEVLMYSKFSSKSDIWAFGVLMWEIYSLGKMPYERFTNSETAEHIAQGLRLYRPHLASEKVYTIMYSCWHEKADERPTFKILLSNILDVMDEES
modifications: left off: small tags and cut ends
B9: CSK (protein)
chain: MSAIQAAWPSGTECIAKYNFHGTAEQDLPFCKGDVLTIVAVTKDPNWYKAKNKVGREGIIPANYVQKREGVKAGTKLSLMPWFHGKITREQAERLLYPPETGLFLVRESTNYPGDYTLCVSCDGKVEHYRIMYHASKLSIDEEVYFENLMQLVEHYTSDADGLCTRLIKPKVMEGTVAAQDEFYRSGWALNMKELKLLQTIGKGEFGDVMLGDYRGNKVAVKCIKNDATAQAFLAEASVMTQLRHSNLVQLLGVIVEEKGGLYIVTEYMAKGSLVDYLRSRGRSVLGGDCLLKFSLDVCEAMEYLEGNNFVHRDLAARNVLVSEDNVAKVSDFGLTKEASSTQDTGKLPVKWTAPEALREKKFSTKSDVWSFGILLWEIYSFGRVPYPRIPLKDVVPRVEKGYKMDAPDGCPPAVYEVMKNCWHLDAAMRPSFLQLREQLEHIKTHELHL
modifications: left off: small tags and cut ends

Test system: kinases of Table 6 on Myelin Basic Protein (MBP)
Test: Kinase assay using MBP substrate, ProQ Diamond stain (Table 6)
Assay type: biochemical
Conditions: kinase printed on MBP-coated slide; 20 uM ATP, 30° C.; ProQ Diamond Microarray Stain; graded Strong/Weak/Negative
Summary of the method: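 Reactions ran at 30° C. with 20 uM ATP, 4 mM MgCl2 and 5% DMSO in HEPES pH 7.5, inhibitor added or omitted. Kinases had been arrayed onto slide-bound dephosphorylated bovine MBP; phospho-signal read after ProQ Diamond staining.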

| Molecule | MBP Kinase Activity |
| --- | --- |
| B1 | Negative |
| B2 | Strong |
| B3 | Strong |
| B4 | Strong |
| B5 | Strong |
| B6 | Weak |
| B7 | Strong |
| B8 | Strong |
| B9 | Negative |
